Experimental data taken from PMC9288967.

Molecular target: SARS-CoV-2 spike RBD (wild type) (SARS-CoV-2) (UniProt P0DTC2)
Assay: cross-linking

## mNb6(108FFY) (VHH)
  kobs (apparent first-order constant of cross-linking): 0.244 h⁻¹

## mNb6(108FSY) (VHH)
  kobs (apparent first-order constant of cross-linking): 0.102 h⁻¹
